Reference: paper PMC11617999
“And” between values parts separate entries of the source, which are not always exact repeats. Equal values may be shown once. Each block holds one substance with its values, some of them ahead of it.

Assays:
[1] = molecular target: His-FakB2 (fatty acid binding protein FakB2, Staphylococcus aureus) (S. aureus); test: BLI; Octet RED96e; His-FakB2 (2 ug/mL) immobilised on Ni-NTA biosensor tips, blocked with 0.1 mg/mL BSA; untagged FakA 1.65-133.3 nM in solution, 5 min association, 10 min dissociation; 50 mM Tris HCl pH 7.4, 150 mM KCl, 1 mM TCEP, 5% glycerol, 10 mM MgCl2; 1:1 binding model (1 FakB2:1 FakA binding site)
[2] = molecular target: His-tagged FakB2 (Staphylococcus aureus) (S. aureus); test: BLI; additional studies as a1 but FakB loaded at a range of 2 to 20 ug/mL
[3] = molecular target: Fatty acid kinase FakA, wild type (Staphylococcus aureus) (S. aureus); test: SEC-SAXS; size-exclusion chromatography coupled with small-angle X-ray scattering of FakA in solution; AlphaFold dimer model refined with BilboMD, envelopes by DAMMIF and DENSS
[4] = molecular target: Fatty acid kinase FakA, wild type (Staphylococcus aureus) (S. aureus); test: mass photometry; kinetic mass photometry, 20 min after dilution to 10 nM (equilibrium); room temperature; 50 mM Tris pH 7.4, 150 mM KCl, 1 mM TCEP, 10 uM ZnSO4; dimer to monomers
[5] = molecular target: Fatty acid kinase FakA, wild type (Staphylococcus aureus) (S. aureus); test: mass photometry; kinetic mass photometry, initial reading (0 min) after dilution to 10 nM; room temperature; 50 mM Tris pH 7.4, 150 mM KCl, 1 mM TCEP, 10 uM ZnSO4; dimer to monomers
[6] = molecular target: His-tagged FakB2 (Staphylococcus aureus) (S. aureus); test: BLI; His-FakB2 (2 ug/mL) immobilised on Ni-NTA biosensor tips, blocked with 0.1 mg/mL BSA; varying concentrations of untagged FakA, 5 min association, 10 min dissociation; 50 mM Tris HCl pH 7.4, 150 mM KCl, 1 mM TCEP, 5% glycerol, 10 mM MgCl2; Octet RED96e; fitted 1:1 and with a bivalent analyte model
[7] = molecular target: FakA H282A, H284A variant (Staphylococcus aureus) (S. aureus); test: mass photometry; kinetic mass photometry, 20 min after dilution to 10 nM (equilibrium); room temperature; 50 mM Tris pH 7.4, 150 mM KCl, 1 mM TCEP, 10 uM ZnSO4; dimer to monomers
[8] = molecular target: FakA H282A, H284A variant (Staphylococcus aureus) (S. aureus); test: mass photometry; kinetic mass photometry, initial reading (0 min) after dilution to 10 nM; room temperature; 50 mM Tris pH 7.4, 150 mM KCl, 1 mM TCEP, 10 uM ZnSO4; dimer to monomers

koff [1]: 0.000686 s⁻¹
kon [1]: 158000 M⁻¹ s⁻¹
Substance: FakA (fatty acid kinase, Staphylococcus aureus), untagged (enzyme)

Kd [2]: 4.34 to 15 nM and 10.6 nM
stoichiometry N [3]: 2
percent of protein in the dimer peak [4]: 57%
percent of protein in the dimer peak [5]: 77%
Kd [6]: 4.34 nM
Substance: Fatty acid kinase FakA, wild type (Staphylococcus aureus) (enzyme)

Substance: FakA H282A, H284A variant (Staphylococcus aureus) (enzyme)
percent of protein in the dimer peak [7]: 24%
percent of protein in the dimer peak [8]: 63%
